Laboratory results from patent US20100247549A1 (US Dept. of Health and Human Services, published 2010).

T1: human Fcγ R IIB (human, UniProt P31994 46-217)
T1 sequence: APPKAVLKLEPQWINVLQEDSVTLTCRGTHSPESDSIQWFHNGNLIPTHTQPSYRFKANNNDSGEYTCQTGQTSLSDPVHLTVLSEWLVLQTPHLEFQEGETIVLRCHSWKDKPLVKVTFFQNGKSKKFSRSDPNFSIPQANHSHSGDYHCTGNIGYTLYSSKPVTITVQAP


Experiments:
[1] = molecular target: Envelope glycoprotein (E) of parental DENV-4 (C6/36) (dengue virus type 4, UniProt P09866 280-774)
purified human C1q = purified human C1q (human, UniProt P02745 23-245; P02746 28-253; P02747 29-245); experiment: ELISA, IgG titrated against purified human C1q
Sequence of purified human C1q (P02745 23-245 limits assumed, chain 1 of 3): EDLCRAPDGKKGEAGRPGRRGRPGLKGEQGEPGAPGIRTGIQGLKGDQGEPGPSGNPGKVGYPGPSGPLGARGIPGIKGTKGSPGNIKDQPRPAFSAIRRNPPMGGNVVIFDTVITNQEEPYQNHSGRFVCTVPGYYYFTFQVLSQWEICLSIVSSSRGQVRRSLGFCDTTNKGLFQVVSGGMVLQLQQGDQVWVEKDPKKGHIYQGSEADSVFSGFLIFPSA
Sequence of purified human C1q (P02746 28-253 limits assumed, chain 2 of 3): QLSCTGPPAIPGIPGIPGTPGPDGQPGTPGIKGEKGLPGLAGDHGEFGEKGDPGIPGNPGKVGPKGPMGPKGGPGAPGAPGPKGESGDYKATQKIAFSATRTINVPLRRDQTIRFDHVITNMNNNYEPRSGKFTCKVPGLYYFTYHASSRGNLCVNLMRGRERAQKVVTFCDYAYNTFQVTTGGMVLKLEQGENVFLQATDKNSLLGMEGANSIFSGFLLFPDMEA
Sequence of purified human C1q (P02747 29-245 limits assumed, chain 3 of 3): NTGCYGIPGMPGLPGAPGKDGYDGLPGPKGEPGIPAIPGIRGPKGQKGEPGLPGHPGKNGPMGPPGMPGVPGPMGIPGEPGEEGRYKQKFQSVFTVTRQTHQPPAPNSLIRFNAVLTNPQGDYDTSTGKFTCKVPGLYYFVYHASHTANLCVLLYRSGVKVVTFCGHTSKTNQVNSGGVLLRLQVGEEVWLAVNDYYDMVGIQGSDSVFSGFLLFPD

human Fcγ R IIB = molecular target: T1, human Fcγ R IIB; experiment: ELISA, IgG titrated against human Fcγ R IIB
human Fcγ R IIIB = human Fcγ R IIIB (human, UniProt O75015 17-200); experiment: ELISA, IgG titrated against human Fcγ R IIIB
Sequence of human Fcγ R IIIB (O75015 17-200 limits assumed): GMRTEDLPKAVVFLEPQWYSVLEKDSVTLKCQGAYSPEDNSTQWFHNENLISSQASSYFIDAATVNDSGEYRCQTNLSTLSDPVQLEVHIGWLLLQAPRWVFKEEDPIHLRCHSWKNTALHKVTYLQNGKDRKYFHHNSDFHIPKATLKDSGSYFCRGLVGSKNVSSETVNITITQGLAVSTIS

human Fcγ R I = human Fcγ R I (human, UniProt P12314 16-288); experiment: ELISA, IgG titrated against human Fcγ R I
Sequence of human Fcγ R I (P12314 16-288 limits assumed): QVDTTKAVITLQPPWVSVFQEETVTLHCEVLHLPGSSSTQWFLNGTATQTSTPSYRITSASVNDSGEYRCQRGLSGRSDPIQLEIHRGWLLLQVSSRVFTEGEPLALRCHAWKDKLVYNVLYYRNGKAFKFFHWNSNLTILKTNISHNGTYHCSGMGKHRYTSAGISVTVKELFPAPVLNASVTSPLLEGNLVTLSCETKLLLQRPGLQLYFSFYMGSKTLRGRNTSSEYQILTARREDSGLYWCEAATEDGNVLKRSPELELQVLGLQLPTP

Sequence of Envelope glycoprotein (E) of parental DENV-4 (C6/36) (P09866 280-774 limits assumed): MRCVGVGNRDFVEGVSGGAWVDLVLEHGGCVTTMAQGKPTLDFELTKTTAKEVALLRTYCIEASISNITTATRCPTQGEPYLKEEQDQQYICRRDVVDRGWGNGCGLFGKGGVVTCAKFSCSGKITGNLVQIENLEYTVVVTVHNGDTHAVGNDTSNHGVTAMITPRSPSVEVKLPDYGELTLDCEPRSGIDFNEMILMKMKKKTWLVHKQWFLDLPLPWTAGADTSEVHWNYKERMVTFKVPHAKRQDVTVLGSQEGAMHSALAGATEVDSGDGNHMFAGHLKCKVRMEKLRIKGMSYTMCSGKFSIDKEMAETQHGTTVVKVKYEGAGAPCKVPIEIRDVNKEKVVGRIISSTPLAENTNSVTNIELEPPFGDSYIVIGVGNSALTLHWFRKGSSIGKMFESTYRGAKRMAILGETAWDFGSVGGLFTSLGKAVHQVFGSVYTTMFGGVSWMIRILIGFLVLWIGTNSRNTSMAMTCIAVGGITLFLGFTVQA

Binder | Kd [1] | binding result (purified human C1q) | binding result (human Fcγ R IIB) | binding result (human Fcγ R IIIB) | EC50 (read off the curve) (human Fcγ R I)
Chimpanzee antibody Fab 5H2 (Fab, V domains shown) VH: EVQLLESGPGLVKPSETLSLTCTVSGGSISDFYWSWLRQSPGKGLEWIGYAHSRVSAYYNPSLKSRVTISVDTSKNQLSLRLSAVTAADTALYYCARQGTGTTGVSEDPFDLWGQGTKVIVSL VL: ELQMTQSPSSLSASVGDRVTITCRASQDISIRLNWYQQKPGKAPKLLIYDASTLESGVPSRFSGSGSGTDFTLTISSLQPEDFATYYCQQFNSYPLTFGGGTKVEIKR | 0.21 nM |  |  |  | 
Humanized IgG 1A5 (IgG1), full-length (antibody, also called IgG 1A5 WT; MAb IgG 1A5; copies: 2 + 2) heavy: not shown light: ELQMTQSPSSVSASVGDTVTIACRASQSITNYLSWYQQKPGKAPKLLIYHASTLQSGIPSRFSGSGSGTDFTLTISSLQPDDFATYYCHYGYGTHTFGQGTKLEIKRTVAAPSVFIFPPSDEQLKSGTASVVCLLNNFYPREAKVQWKVDNALQSGNSQESVTEQDSKDNTYSLSSTLTLSKADYEKHKVYACEVTHQGLSSPVTKSFN |  | binds | binds | binds | ~0.7 µg/mL
IgG 1A5 ΔD (IgG 1A5 with the 9-amino-acid deletion, amino acids 231-239, in the CH2 domain) (antibody, also called variant ΔD; copies: 2 + 2) heavy: EVQLLESGGGLVQPGGSRRLSCAASGFTISDNVMHWVRQAPGKGLEWVALIYSADTTHYADSVKGRFTISRDNSKNTLYLQMDSLRPEDTAVYYCAREYCTGDTCFAHFDYWGQGTLVSVSSASTKGPSVFPLAPSSKSTSGGTAALGCLVKDYFPEPVTVSWNSGALTSGVHTFPAVLQSSGLYSLSSVVTVPSSSLGTQTYICNVDHKPSNTKVDKKVEPKSCDKTHTCPPCPVFLFPPKPKDTLMISRTPEVTCVVVDVSHEDPEVKFNWYVDGVEVHNAKTKPREEQYNSTYRVVSVLTVLHQDWLNGKEYKCKVSNKALPAPIEKTISKAKGQPREPQVYTLPPSRDELTKNQVSLTCLVKGFYPSDIAVEWESNGQPENNYKTTPPVLDSDGSFFLYSKLTVDKSRWQQGNVFSCSVMHEALHNHYTQKSLSLSPGK light: ELQMTQSPSSVSASVGDTVTIACRASQSITNYLSWYQQKPGKAPKLLIYHASTLQSGIPSRFSGSGSGTDFTLTISSLQPDDFATYYCHYGYGTHTFGQGTKLEIKRTVAAPSVFIFPPSDEQLKSGTASVVCLLNNFYPREAKVQWKVDNALQSGNSQESVTEQDSKDNTYSLSSTLTLSKADYEKHKVYACEVTHQGLSSPVTKSFN |  | no binding |  |  | 
IgG 1A5 ΔA (replacement amino acids at 327, 330 and 331 from the Fc of IgG4) (antibody) chain 1: EVQLLESGGGLVQPGGSRRLSCAASGFTISDNVMHWVRQAPGKGLEWVALIYSADTTHYADSVKGRFTISRDNSKNTLYLQMDSLRPEDTAVYYCAREYCTGDTCFAHFDYWGQGTLVSVSSASTKGPSVFPLAPSSKSTSGGTAALGCLVKDYFPEPVTVSWNSGALTSGVHTFPAVLQSSGLYSLSSVVTVPSSSLGTQTYICNVDHKPSNTKVDKKVEPKSCDKTHTCPPCPAPELLGGPSVFLFPPKPKDTLMISRTPEVTCVVVDVSHEDPEVKFNWYVDGVEVHNAKTKPREEQYNSTYRVVSVLTVLHQDWLNGKEYKCKVSNKGLPSSIEKTISKAKGQPREPQVYTLPPSRDELTKNQVSLTCLVKGFYPSDIAVEWESNGQPENNYKTTPPVLDSDGSFFLYSKLTVDKSRWQQGNVFSCSVMHEALHNHYTQKSLSLSPGK chain 2: ELQMTQSPSSVSASVGDTVTIACRASQSITNYLSWYQQKPGKAPKLLIYHASTLQSGIPSRFSGSGSGTDFTLTISSLQPDDFATYYCHYGYGTHTFGQGTKLEIKRTVAAPSVFIFPPSDEQLKSGTASVVCLLNNFYPREAKVQWKVDNALQSGNSQESVTEQDSKDNTYSLSSTLTLSKADYEKHKVYACEVTHQGLSSPVTKSFN |  |  |  |  | ~3 µg/mL
Humanized IgG 5H2 ΔD (IgG1 5H2 with a 9-amino-acid deletion, positions 231-239, at the N-terminus of the CH2 domain) (antibody, also called IgG1 5H2 ΔD; IgG 5H2D; copies: 2 + 2) heavy: EVQLLESGPGLVKPSETLSLTCTVSGGSISDFYWSWLRQSPGKGLEWIGYAHSRVSAYYNPSLKSRVTISVDTSKNQLSLRLSAVTAADTALYYCARQGTGTTGVSEDFFDLWGQGTKVIVSLASTKGPSVFPLAPSSKSTSGGTAALGCLVKDYFPEPVTVSWNSGALTSGVHTFPAVLQSSGLYSLSSVVTVPSSSLGTQTYICNVDHKPSNTKVDKKVEPKSCDKTHTCPPCPVFLFPPKPKDTLMISRTPEVTCVVVDVSHEDPEVKFNWYVDGVEVHNAKTKPREEQYNSTYRVVSVLTVLHQDWLNGKEYKCKVSNKALPAPIEKTISKAKGQPREPQVYTLPPSRDELTKNQVSLTCLVKGFYPSDIAVEWESNGQPENNYKTTPPVLDSDGSFFLYSKLTVDKSRWQQGNVFSCSVMHEALHNHYTQKSLSLSPGK light: not shown | 0.14 nM | no binding |  |  | 
